Measured values: the DeepSol protein solubility set

Test: soluble on expression in E. coli; label from the status in PepcDB or PDB records

Sequence	soluble on expression in E. coli
MGSDKIHHHHHHMIFINSRFLTQDVSGVQRYAEQMCRALQRLRNDLIFVAPRNIRLHDCAKALDVQHIGHATGHLWEQVDLPLHLKRKGNPLLVSISNTGPMFYANQIATHHDINYVRYPQSYTRLFRLAYRTITPILLSRARTLITGSSFSRGEIASFYGYAEDKVLVLPAAVSDDFTPRAVHRDQPDYLLAVSSPAAHKNFNRMIQAFLSLRGHADLQLHIVGAASSLFADPNLQRLACRDPRIRFLGRLSDAELIEQYQGASAFVFPSLYEGFGIPPLEAQACGCPVLAANAASIPEVLQASALYFDPLDVSHMAAAMHRVLSDAPLRQALRRQGLKNVQRFSWEISAQRLSQRIDALLEPAVQGKHHVAPESSPGKP	not soluble
MGSDKIHHHHHHMIFSCPIDRSDVNEKLECEKGHKFGIIGGQIYDFLLKDVEVDKLLSRVIPIYESIWAPLGLLITSGKTYTSFLREIGEFIDGDLIIDVGTGTGKIFDFLNCKTCIGIDVSLRFLMYMKRKRTRVIAVRADANNLPLKSGIADGISSTLVLHMLSNPSFAIREMSRVLKSNGKCSIAVLANVNSIIGKTLSRWWKVNLRHYDYYINLLQENSLKVVERKELGPWEVINCIKIS	not soluble
MGSDKIHHHHHHMIFTMKATKILICILCCTWICSCSLLEVDPVSTITSQSFWKTPGDAKAYLTGIYNKVRSLNNTSYYGEDRGDAFKAGEIGPTSVAWAHTLLESNAPSYRSAYNIIHHANLLFNKIESLKFTNETEKNRIKAECHFLRAYTYFLIVRIWGDAPIITDPVLSDNVELKPRSPKEDVMKLILEDIEQSVLLFPEDGYINKNLASKPAAYALKADVLMWKAKVLNGGNADLEEAIKAIDQVGGSGVSLLPDYAKVFANDNKKNNEIIFSFYFERYETGNLSIATNTTSRTDNLSMAVNLADAATSPNQSRHVYAPSDKARELYLKYPGDRRYKVAMIDLVDKDGNLILTQTNKFRGKAYSDDRYFDDDLIAYRWGDLLLLRAEANAALNKISESLVDLNEVRDRAGLEPYDGPKDKIAVEKEICDERLRELFIEQKRWFDLVRFHCGGTIDIYKEVPNLNDKPGYPLYFPINYNDMVLNDKLVQTDGYESNVER	not soluble
MGSDKIHHHHHHMIILTRKDLDELLKAEIAVSSVKEAFKLHYQKKVDQPQRLVMSVKGNWWGLMPSSTDYSFVTKIVNVIPENKERGLPLVQGVVILMSPDTGEILAIIDGTTLTAIRTAAASILSTELAINGRNIGILGIIGAGTEAYYHAKLALEYFKVQKLYISARKSHFELAKRVGGEATDLETLLKNSDTIFATTSSNFPVVLGKYLKDVFHLSSIGAHTPDSRELDDDTIIKVKSYIVDSLEAVSKESGDYIIPKQRGLLENKMIKELGEIIEKGIKIERPSLFKTVGIAVEDNITAHIAYQEALRRGIGFNVSI	not soluble
MGSDKIHHHHHHMIKIGAHMPISKGFDRVPQDTVNIGGNSFQIFPHNARSWSAKLPSDEAATKFKREMKKHGIDWENAFCHSGYLINLASPKDDIWQKSVELLKKEVEICRKLGIRYLNIHPGSHLGTGEEEGIDRIVRGLNEVLNNTEGVVILLENVSQKGGNIGYKLEQLKKIRDLVDQRDRVAITYDTCHGFDSGYDITKKEGVEALLNEIESLFGLERLKMIHLNDSKYPLGAAKDRHERIGSGFIGEEGFAVFFSFKEIQEVPWILETPGGNEEHAEDIKKVFEIIEKFGIEVD	not soluble
MGSDKIHHHHHHMIKLSYLTSYITCPRLCYFRVHVGEKRFTELTAVREIYLSLKQGFDLDWAKKRAKALHGAFDEEAFRSAANKFIFPQIDCKSVEVDATIKSKSLGLLVSVDEIVECDGELLPLFLGLNPPENGVWFKDMVKAGAAALAGNYSKALIYYGYTGDLRPVEVTFSLKKKVIKLIERVKLIQRGFLPERKESRYCNYCSFSEDCKSRAETFASKFL	not soluble
MGSDKIHHHHHHMILYFSGTGNSRYVARKIAQELNDELISLNQLIKDEKTDELISADKPFIFVCPTYAWRLPIVVTDFIKETKFLGSNRVYFVMTCGGDTAKSINYIQKLCKYKEWQLKGMAEIKMPENYIALFSTTDKETSKQMIKEADKQIYRIISDIRNENEFETITPSGLGGTIKSGIINTVFYKTIISAKGFHYTDKCIGCGKCVELCPLNNINLKNKKPVWKNNCTHCMACICGCPTEAIEYKNKTQNRERYYLE	not soluble
MGSDKIHHHHHHMIMRILVVGDFLKTSGMTRYIFNVIGRIHASDFQVDALSISGKDECKGQVKKMGWGFYCVQAANNNLLRHLVQSFIFFKKHAKDYDVIHFNESALWNFLPIIFAHLFGAKRIILNSHNTYFATEGSKKLYVVLEIMHRIGKWLVAHVVAQNIAVSEEAARWMFTRKTINRHEYKIIVNGIELEKFAYNKEQRFKIRKSLKINEDTFLFGNVGIFNARKNQLRLLEIFNELVKRNLDVKLVLVGDGPIKEAIVAKISELRLADKVVMTGLINNTNEYYQAMDGVIMPSLNEGLSTVLLEAQTSGLQFILSEGLPLGNHIDLLVHEVPLSESNRVWADVVEHNMNREKREVFGSIMQKKGFDVELSAKELYQTYLEER	not soluble
MGSDKIHHHHHHMINDHQYVADLHIHLGQTASNRPVKITAARTLTLENIIDYARTVKGIDIIGVIDCHVPEVLEGLKHSIESGEAYELKGGGIRFPDVTLILGTEIEVYDEESLGPVHVLAYTPTWNAMMELSSWMGSRMKNPTLSSQRLYETSIVLQQKVKELGGLFIPAHAFTPFKGVYGKGVKQSMGEIFDLALIDGIELGLSADTSMADQVEELHRFPFLSNSDAHSLEKLAREYQILHLYEPSFQAFQSALRDKDKCSIVANYGLNPYLGKYYETTCAQCRTPMKGSACETCGSSKVVKGVSERLTELATASENNGKQRPPYVHQIPLEFIPKVGKRTLARLREAFGTDMDILHQATFEQLCDVIPNHIAEAIVIAREGKATIKRGGGGHYGKMIGTE	not soluble
MGSDKIHHHHHHMINEQRLLNTFLELVQIDSETGNESTIQPILKEKFIALGLDVKEDEAAKHPKLGANNLVCTMNSTIEEGEVPKLYLTSHMDTVVPAINVKPIVKDDGYIYSDGTTILGADDKAGLAAMLEVLQVIKEQQIPHGQIQFVITVGEESGLIGAKELNSELLDADFGYAIDASADVGTTVVGAPTQMLISAKIIGKTAHASTPKEGVSAINIAAKAISRMKLGQVDEITTANIGKFHGGSATNIVADEVILEAEARSHDPERIKTQVKHMTDVFETTASELGGKAEVTVEQSYPGFKINDNEAVVKIAQESARNLGLSANTIISGGGSDGSIINTFGIPSVILGVGYEKIHTTNERMPIKSLNLLASQVLEIIKIVARQSK	not soluble
MGSDKIHHHHHHMINKYKVSENRLSIMEIERFAVHDGPGIRTVVFLQGCPLHCSWCSNPESQKRKPHLLHIKNKCIGCGRCEAICPRGNISIQDHFPVFNRQACVACKACERICPQNAIKFVGESITSSEIMEILLRDRDYYLNSGGGVTFSGGEAFTQFEGLMDLLIQCKNEKLHTSVETCGQVNLDKIKQALPLIDLFLFDIKHTDKDLLQKETGANLDTILTNLRYISSKSANKVTIRVPVIPGFNFNENTLREIFMLAKENRIKCVHLLPYHTLGKDKYEQLGLTYPYSCEQMLAKEELFPFKEMGEKMGLEIRIGG	not soluble
MGSDKIHHHHHHMINRYLGDPPFESPERRNRLPERHKVKAGFSPTIDCAVLIAAAEKGFAADEGIELELFREQSARAVLAALGGDDIHIGHLPAPVPVGSAVGLDDLPADIVGVFTLSLGGSATAVSHGFYDELYREGMKLPDPAAFGRAMARVCAARRAAGKNPPVFAVEDIVSTPFYTLRYLLGSCGVLLGRDMEIIEALPKAMPALLESGKVDALCTAEPAGSAVVLGGAGRIVTTGALIWHNAPEKILAVKKGWAEENATLLEGLLRALYRAGEWCANDANIEELAGILAAPQYIDENGEFLLPALTGYISTSQRDMQRFQEFFVTSAKAANFPWQSQALWFFSQMLRWGEVPAERRLEPTMAEAARNAYRPDIFRKAMKPLFVPVPGANLKLEGTLKEPVHVGASRTGLVLGPDCFFDGRVFDPETLEMDDEI	not soluble
MGSDKIHHHHHHMIQKGLEGVKICESSICYLDGINGRLYYRGIPVEELAEKSTFEETAYFLWYGKLPTKSELEEFKRKMADYRELPAEALGILYHLPKNLHYIDVLKIFLSIHGSMDGNDEDLREKAIRVASVFPTILAYYYRYSKGKELIRPRKDLSHVENFYYMMFGERNEKIRLLESAFILLMEQDINASTFAALVIASTLSDLYSCIVGALGALKGPLHGGASEKVPPMLEEIGSEDRVEEFVQKCLKEKRKIMGFGHRVYKTYDPRAVFLKRVLQEHFPDSKLFRIASKLEEYIVSNKIKNIYPNVDLYSSVLFEELGFPRNMFTALFATARVVGWTAHVIEYVSDNKLIRPTSEYVGPMDVEYIPIERRDENG	not soluble
MGSDKIHHHHHHMIQRRETFLNNVAEKLGRGRRTAGVKRPDYTVKPQFEVMKEHSSDQLVNVLSEQCTKIHTDVKQTKVDRLEQAIDNVLEEYSARNVITWNDPRFDQFGLTSFLQREQVEVWDHTEGERLVEKAEQADIGITFADYTLAESGTVVLLSGNGKGRSVSLLPTYYIAIIPKSTLVPRMSQVTRELHLKAASGERLPSCINFISGPSNSADIEMNLVVGVHGPIRACYIVVEDR	not soluble
MGSDKIHHHHHHMIRNLTPSDFAQVISLGEQVHGANYLDLDTLKHYYQLGIKDGINAHFVAEQAGEIIGFRLTFTANQWTLDEWCSPALWGVEIDKVCYFKSNTLAEKARGQGIGGDLLAQSIAAVKAQGAKAGVSHLWKQSPHNAAVRYFTKAGGRLIKEHPGRWNQANDGSDYLCVLCGNDCHCTACEMLINF	not soluble
MGSDKIHHHHHHMIRSLWIAKTGLNAQQTNMDVISNNLANVSTNGFKRQRAVFEDLMYQTIRQPGAQSSEQTMLPSGLQLGTGVRPVSTERIHTQGTFSETGNSKDVAIKGQGFFQVQLPDGTTAYTRDGAFQLDGNGQLVTSSGYQVQPAITVPANATELNIGRDGIVSVKVQGQAATNQIGQLTLTTFINDSGLESMGENLYLETASSGAPNETNPGLNGAGLLYQKYVETSNVNVAEELVSMIQTQRAYEINSKAISSSDQMLQKLTQL	not soluble
MGSDKIHHHHHHMISMKPRYKPDWESLREHTVPKWFDKAKFGIFIHWGIYSVPGWATPTGELGKVPMDAWFFQNPYAEWYENSLRIKESPTWEYHVKTYGENFEYEKFADLFTAEKWDPQEWADLFKKAGAKYVIPTTKHHDGFCLWGTKYTDFNSVKRGPKRDLVGDLAKAVREAGLRFGVYYSGGLDWRFTTEPIRYPEDLSYIRPNTYEYADYAYKQVMELVDLYLPDVLWNDMGWPEKGKEDLKYLFAYYYNKHPEGSVNDRWGVPHWDFKTAEYHVNYPGDLPGYKWEFTRGIGLSFGYNRNEGPEHMLSVEQLVYTLVDVVSKGGNLLLNVGPKGDGTIPDLQKERLLGLGEWLRKYGDAIYGTSVWERCCAKTEDGTEIRFTRKCNRIFVIFLGIPTGEKIVIEDLNLSAGTVRHFLTGERLSFKNVGKNLEITVPKKLLETDSITLVLEAVEE	not soluble
MGSDKIHHHHHHMISTANITMQFGSKPLFENVSVKFNNGNRYGLIGANGCGKSTFMKILGGDLEPSAGQVMLEPNTRLGKLRQDQFAYEEFTVIDTVIMGHGQLWKVKAERDRIYSLPEMTEEDGMAVAELETEFAEMDGYTAESRAGELLLGLGIPLEQHFGPMSEVAPGWKLRVLLAQALFSDPDVLLLDEPTNHLDINTIRWLETILTARNSTMIIISHDRHFLNSVCTHMADLDYGELRLFPGNYDEYMTAATQSREQLLSDNAKKKAQIAELQTFVSRFSANASKAKQATSRAKQIDKIQLAEVKPSSRVSPFIRFEQAKKLHRQAVVVEKMAKAFDDKVLFKNFDITVEAGERVAIIGPNGIGKTTLLRTLVGEMTPDAGSVKWTDSAEVGYYAQDHAHDFEDDMTLFDWMGQWTSGEQVIRGTLGRMLFSNDEILKSVKVISGGEQGRMLFGKLILQKPNVLVMDEPTNHLDMESIEALNLALENYPGTLLFVSHDREFVSSLATRIIELSADGVVDFSGTYDDYLRSQGVLV	not soluble
